Assay results reported in patent publication US20160030629A1, “PEPTIDE-ALBUMIN HYDROGEL PROPERTIES AND ITS APPLICATIONS” (KANSAS STATE UNIVERSITY RESEARCH FOUNDATION, priority 2012, published 2016).

Experiments:
Format in all cases: physicochemical
[1] = pH of synthesized peptide in water solution
Text: Peptides were synthesized on a CEM Liberty microwave peptide synthesizer (CEM Corporation, Matthews, N.C.) based on the automated base-labile 9-fluorenylmethoxycarbonyl (Fmoc) strategy with Fmoc-protected amino acids (EMD Biosciences, San Diego, Calif.). Peptides were cleaved with 95% trifluoroacetic acid (Sigma-Aldrich, Milwaukee, Wis.), 2.5% triisopropylsilane (Sigma), and 2.5% deionized water. The crude peptides were washed three times with anhydrous ether (Fisher Biotech, Fair Lawn, N.J.). After that, peptides were dissolved in acetonitrile and distilled (DI) water (50/50 v/v). The peptide solution was frozen in a −80° C. refrigerator overnight and then was freeze-dried for 48 hours by using the Labconco freeze dry system (Labconco, Kansas City, Mo.). The pH value of the peptide in water solution was 3.6. Molecular weight of the synthesized peptide was confirmed by matrix-assisted laser desorption/ionization time-of-flight mass spectroscopy on an Ultraflex II instrument (Bruker Daltronics, Billerica, Mass.). The peptide purity was confirmed by a Beckman System Gold high performance liquid chromatography (HPLC, Beckman Coulter, Inc., Fullerton, Calif.) on a phenomenex synergi 4μ Hydro-RP column (Phenomenex, Inc., Torance, Calif.) with the following gradient: 10-90% B in 20 min (A: 99.9% H2O, 0.1% TFA; B: 90% acetonitrile, 9.9% H2O, 0.1% TFA).

[2] = h9e hydrogel formation in cell culture media, serum/albumin dependence
Text: This phenomenon was further exploited in other cell culture medium like Dulbecco's modified Eagle's medium (DMEM), Roswell Park Memorial Institute medium (RPMI), and Leibovitz medium (L-15). […] After screening the abundant serum compounds, we concentrated on one of the most abundant proteins in serum, albumin, which contains charged groups and several surface binding domains.

[3] = Rheology (storage modulus, hydrogel forming rate) of h9e/BSA mixtures; conditions: 3 mM h9e solution without BSA, 30 min test
Description: BSA and HSA were dissolved in water with 5 wt % concentration. The peptide solution and albumin solution were then mixed at different ratios for final mixtures of 1, 2, 3 mM h9e peptide with albumin from 0.1 to 5 wt %.
The storage (G′) and loss (G″) moduli of h9e hydrogels with different peptide/albumin ratios were measured on a rheometer system C-VOR 150 (Malvern instruments, Malvern, Worcestershire WR141XZ, United Kingdom) with a 20 mm diameter parallel plate test system. All rheological tests were carried out at 37° C. […]

[4] = Comparison of material properties of different 3D cell culture hydrogels
Text: In addition, for in vitro 3D cell culture, cell encapsulation and isolation are two critical steps to introduce 3D spatial support for cell growth and to recover embedded cells from the scaffold matrix for downstream studies respectively. For a convenient, effective, and safe encapsulation, cells should be added simultaneously with the initialization of hydrogelation. Therefore, mild and cyto-compatible hydrogel-forming conditions are preferred, to ensure that cells survive comfortably during gel formation. However, the sol-gel transformation of currently used peptide/protein hydrogels (i.e., puramatrix gel, hydromatix peptide hydrogel, and matrigel) is triggered by adjusting pH or temperature (Table 1).

[5] = Stability of h9e-2i hydrogel and of h9e peptide solution
Description: The stability of h9e-2i medium hydrogel was tested. A plastic tray was placed on the bottom of the well plate. Next, 1 wt % h9e solution was mixed with 2i medium at 1:1 (v:v) ratio in a centrifuge tube and then transferred into the well plate. There was 500 μl peptide hydrogel for each well. The well plate was then placed in an incubator for 1 hour. After hydrogel was stable, another 500 μl of 2i medium was slowly added on the top of hydrogel. The top medium was replaced every other day. For mechanical testing, the top 2i medium was removed and hydrogel was transferred to a dynamic rheometer using the tray. The stability of the peptide solution was also tested using 1 wt % peptide solution stored in 4° C. refrigerator for up to 24 days. Part of the peptide solution was taken out and mixed with 2i medium with 1:1 (v:v) ratio on days 1, 6, 18 and 24.

## FLIVIGSIIGPGGDGPGGD (Derivative of spider flagelliform silk protein and a trans-membrane segment of subunit IV in the dihydropyridine sensitive human muscle L-type calcium channel) [h9e, 19 unit amphiphilic self-assembling peptide]
[1]
  pH value of the peptide in water solution: 3.6
[2]; MEM without serum
  solution to hydrogel transition: did not stimulate this solution to hydrogel transitions effectively
[2]; h9e peptide solution added into MEM with 10% serum
  time to transform into a self-supporting hydrogel matrix: ≤ 1 min
[2]; serum-free N2B27 supplemented 2i medium with 1 wt % albumin
  hydrogel formation: hydrogel formation
[3]
  rheological behaviour: performed as Newtonian liquid
[4]
  Porosity: 50-200 nm
  Solution pH: Neutral
[5]; 1 wt % h9e solution stored at 4° C. for 24 days
  hydrogel formation with 2i medium after storage of solution: could still from a hydrogel
[5]; recent study, no details
  stability of h9e solution: exceed 2 months
